From patent US20150045540A1 (published 2015)

T1: Placenta Growth Factor (PlGF), human (human, UniProt P49763 21-149)
T1 chain: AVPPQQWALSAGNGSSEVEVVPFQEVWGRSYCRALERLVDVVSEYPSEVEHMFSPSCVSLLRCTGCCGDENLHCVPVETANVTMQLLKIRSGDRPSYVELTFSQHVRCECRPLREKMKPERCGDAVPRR

B1: HC 10/SLC 9 (antibody)
chain 1: GQGTLVTVSSASTKGPSVFPQPVLHQPPAMSSALGTTIRLTCTLRNDHDIGVYSVYWYQQRPGHPPRFLLRYFSQSDKSQGPQVPPRFSGSKDVARNRGYLSISELQPEDEAMYYCAMGARSRCWPRGFQSKHNSVTHVFGSGTQLTVLSQPKATPSVTLFPPSSEELQANKATLVCLMNDFYPGILTVTWKADGTPITQGVEMTTPSKQSNNKYAASSYLSLTPEQWRSRRSYSCQVMHEGSTVEKTVAPAECS
chain 2: MSWAPVLLMLFVYCTGCGPQPVLHQPPAMSSALGTTIRLTCTLRNDHDIGVYSVYWYQQRPGHPPRFLLRYFSQSDKSQGPQVPPRFSGSKDVARNRGYLSISVTHVFGSGTQLTVLSQPKATPSVQVQLVQ
B2: HC 9/SLC 6 (antibody)
chain 1: GQGTLVTVSSASTKGPSVFQPVLHQPPAMSSALGTTIRLTCTLRNDHDIGVYSVYWYQQRPGHPPRFLLRYFSQSDKSQGPQVPPRFSGSKDVARNRGYLSISELQPEDEAMYYCAMGARSRCWPRGFQSKHNSVTHVFGSGTQLTVLSQPKATPSVTLFPPSSEELQANKATLVCLMNDFYPGILTVTWKADGTPITQGVEMTTPSKQSNNKYAASSYLSLTPEQWRSRRSYSCQVMHEGSTVEKTVAPAECS
chain 2: MSWAPVLLMLFVYCTGCGPQPVLHQPPAMSSALGTTIRLTCTLRNDHDIGVYSVYWYQQRPGHPPRFLLRYFSQSDKSQGPQVPPRFSGSKDVARNRGYLSISVTHVFGSGTQLTVLSQPKATQVQLVQ
B3: HC 5/SLC 8 (antibody)
chain 1: GQGTLVTVSSASTKGQPVLHQPPAMSSALGTTIRLTCTLRNDHDIGVYSVYWYQQRPGHPPRFLLRYFSQSDKSQGPQVPPRFSGSKDVARNRGYLSISELQPEDEAMYYCAMGARSRCWPRGFQSKHNSVTHVFGSGTQLTVLSQPKATPSVTLFPPSSEELQANKATLVCLMNDFYPGILTVTWKADGTPITQGVEMTTPSKQSNNKYAASSYLSLTPEQWRSRRSYSCQVMHEGSTVEKTVAPAECS
chain 2: MSWAPVLLMLFVYCTGCGPQPVLHQPPAMSSALGTTIRLTCTLRNDHDIGVYSVYWYQQRPGHPPRFLLRYFSQSDKSQGPQVPPRFSGSKDVARNRGYLSISVTHVFGSGTQLTVLSQPKATPSQVQLVQ
B4: HC 4/SLC 15 (antibody)
chain 1: GQGTLVTVSSASTKQPVLHQPPAMSSALGTTIRLTCTLRNDHDIGVYSVYWYQQRPGHPPRFLLRYFSQSDKSQGPQVPPRFSGSKDVARNRGYLSISELQPEDEAMYYCAMGARSRCWPRGFQSKHNSVTHVFGSGTQLTVLSQPKATPSVTLFPPSSEELQANKATLVCLMNDFYPGILTVTWKADGTPITQGVEMTTPSKQSNNKYAASSYLSLTPEQWRSRRSYSCQVMHEGSTVEKTVAPAECS
chain 2: MSWAPVLLMLFVYCTGCGPQPVLHQPPAMSSALGTTIRLTCTLRNDHDIGVYSVYWYQQRPGHPPRFLLRYFSQSDKSQGPQVPPRFSGSKDVARNRGYLSISVTHVFGSGTQLTVLSQPKATPSVTGGGGSQVQLVQ
B5: HC 2/SLC 15 (antibody)
chain 1: GQGTLVTVSSASQPVLHQPPAMSSALGTTIRLTCTLRNDHDIGVYSVYWYQQRPGHPPRFLLRYFSQSDKSQGPQVPPRFSGSKDVARNRGYLSISELQPEDEAMYYCAMGARSRCWPRGFQSKHNSVTHVFGSGTQLTVLSQPKATPSVTLFPPSSEELQANKATLVCLMNDFYPGILTVTWKADGTPITQGVEMTTPSKQSNNKYAASSYLSLTPEQWRSRRSYSCQVMHEGSTVEKTVAPAECS
chain 2: B4 chain 2
B6: HC 6/SLC 15 (antibody)
chain 1: GQGTLVTVSSASTKGPQPVLHQPPAMSSALGTTIRLTCTLRNDHDIGVYSVYWYQQRPGHPPRFLLRYFSQSDKSQGPQVPPRFSGSKDVARNRGYLSISELQPEDEAMYYCAMGARSRCWPRGFQSKHNSVTHVFGSGTQLTVLSQPKATPSVTLFPPSSEELQANKATLVCLMNDFYPGILTVTWKADGTPITQGVEMTTPSKQSNNKYAASSYLSLTPEQWRSRRSYSCQVMHEGSTVEKTVAPAECS
chain 2: B4 chain 2
B7: HC 4/SLC 7 (antibody)
chain 1: B4 chain 1
chain 2: MSWAPVLLMLFVYCTGCGPQPVLHQPPAMSSALGTTIRLTCTLRNDHDIGVYSVYWYQQRPGHPPRFLLRYFSQSDKSQGPQVPPRFSGSKDVARNRGYLSISVTHVFGSGTQLTVLSQPKATPQVQLVQ
B8: HC 4/SLC 9 (antibody)
chain 1: B4 chain 1
chain 2: B1 chain 2
B9: HC 2/SLC 2 (antibody)
chain 1: B5 chain 1
chain 2: MSWAPVLLMLFVYCTGCGPQPVLHQPPAMSSALGTTIRLTCTLRNDHDIGVYSVYWYQQRPGHPPRFLLRYFSQSDKSQGPQVPPRFSGSKDVARNRGYLSISVTHVFGSGTQLTVLSQQVQLVQ
B10: HC 10/SLC 2 (antibody)
chain 1: B1 chain 1
chain 2: B9 chain 2
B11: HC 2/SLC 3 (antibody)
chain 1: B5 chain 1
chain 2: MSWAPVLLMLFVYCTGCGPQPVLHQPPAMSSALGTTIRLTCTLRNDHDIGVYSVYWYQQRPGHPPRFLLRYFSQSDKSQGPQVPPRFSGSKDVARNRGYLSISVTHVFGSGTQLTVLSQPQVQLVQ
B12: HC 3/SLC 10 (antibody)
chain 1: GQGTLVTVSSASTQPVLHQPPAMSSALGTTIRLTCTLRNDHDIGVYSVYWYQQRPGHPPRFLLRYFSQSDKSQGPQVPPRFSGSKDVARNRGYLSISELQPEDEAMYYCAMGARSRCWPRGFQSKHNSVTHVFGSGTQLTVLSQPKATPSVTLFPPSSEELQANKATLVCLMNDFYPGILTVTWKADGTPITQGVEMTTPSKQSNNKYAASSYLSLTPEQWRSRRSYSCQVMHEGSTVEKTVAPAECS
chain 2: MSWAPVLLMLFVYCTGCGPQPVLHQPPAMSSALGTTIRLTCTLRNDHDIGVYSVYWYQQRPGHPPRFLLRYFSQSDKSQGPQVPPRFSGSKDVARNRGYLSISVTHVFGSGTQLTVLSQPKATPSVTQVQLVQ
B13: HC 6/SLC 10 (antibody)
chain 1: B6 chain 1
chain 2: B12 chain 2
B14: HC 8/SLC 10 (antibody)
chain 1: GQGTLVTVSSASTKGPSVQPVLHQPPAMSSALGTTIRLTCTLRNDHDIGVYSVYWYQQRPGHPPRFLLRYFSQSDKSQGPQVPPRFSGSKDVARNRGYLSISELQPEDEAMYYCAMGARSRCWPRGFQSKHNSVTHVFGSGTQLTVLSQPKATPSVTLFPPSSEELQANKATLVCLMNDFYPGILTVTWKADGTPITQGVEMTTPSKQSNNKYAASSYLSLTPEQWRSRRSYSCQVMHEGSTVEKTVAPAECS
chain 2: B12 chain 2
B15: HC 4/SLC 10 (antibody)
chain 1: B4 chain 1
chain 2: B12 chain 2

Molecular target: T1, Placenta Growth Factor (PlGF), human
Test: ELISA

Row | EC50 | Binder
1 | 0.039 nM | B1
2 | 0.096 nM | B2
3 | 0.115 nM | B3
4 | 0.057 nM | B4
5 | 0.053 nM | B5
6 | 0.046 nM | B6
7 | 0.161 nM | B7
8 | 0.101 nM | B8
9 | 0.049 nM | B9
10 | 0.166 nM | B10
11 | 0.046 nM | B11

These binders were tested against Hepatocyte Growth Factor (HGF), human (human, UniProt P14210 32-728) (assay: ELISA).
Hepatocyte Growth Factor (HGF), human, sequence (P14210 32-728): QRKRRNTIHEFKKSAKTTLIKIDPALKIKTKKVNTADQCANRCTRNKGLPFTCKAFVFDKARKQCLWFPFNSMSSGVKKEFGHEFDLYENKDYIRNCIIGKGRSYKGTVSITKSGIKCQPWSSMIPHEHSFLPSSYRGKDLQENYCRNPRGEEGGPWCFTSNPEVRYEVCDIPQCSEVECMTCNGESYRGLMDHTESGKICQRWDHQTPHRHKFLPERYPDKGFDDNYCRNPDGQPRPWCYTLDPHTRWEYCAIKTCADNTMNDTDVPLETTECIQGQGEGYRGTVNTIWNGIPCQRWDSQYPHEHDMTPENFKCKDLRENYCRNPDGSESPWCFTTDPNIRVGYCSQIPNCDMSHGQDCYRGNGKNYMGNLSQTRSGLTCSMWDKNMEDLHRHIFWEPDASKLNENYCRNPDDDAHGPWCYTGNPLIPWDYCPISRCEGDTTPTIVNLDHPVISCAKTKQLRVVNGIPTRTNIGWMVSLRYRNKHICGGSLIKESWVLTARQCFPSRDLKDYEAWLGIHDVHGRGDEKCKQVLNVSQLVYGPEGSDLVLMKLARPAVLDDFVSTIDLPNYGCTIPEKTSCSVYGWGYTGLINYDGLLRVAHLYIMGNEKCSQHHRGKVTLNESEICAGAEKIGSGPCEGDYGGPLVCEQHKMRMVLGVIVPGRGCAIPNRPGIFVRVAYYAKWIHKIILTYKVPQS

Row | EC50 | Binder
12 | 0.053 nM | B1
13 | ~0.041 nM | B12
14 | ~0.041 nM | B13
15 | ~0.041 nM | B14
16 | 0.059 nM | B2
17 | 0.055 nM | B3
18 | ~0.041 nM | B4
19 | 0.041 nM | B5
20 | 0.05 nM | B6
21 | 0.059 nM | B7
22 | 0.045 nM | B8
23 | ~0.041 nM | B15
24 | 0.051 nM | B9
25 | 0.063 nM | B10
26 | 0.058 nM | B11
